Results as given in patent US20130330346A1 (Novartis, published 2013).
Read-outs that look alike come from different tables or passages of the source. Ends that are not written are not given here.

T1: Human CXCR2 (human, UniProt P25025 1-360)
T1 construct: Some cell lines carry an N-terminal 3xHA tag; also called hCXCR2; huCXCR2
T1 sequence: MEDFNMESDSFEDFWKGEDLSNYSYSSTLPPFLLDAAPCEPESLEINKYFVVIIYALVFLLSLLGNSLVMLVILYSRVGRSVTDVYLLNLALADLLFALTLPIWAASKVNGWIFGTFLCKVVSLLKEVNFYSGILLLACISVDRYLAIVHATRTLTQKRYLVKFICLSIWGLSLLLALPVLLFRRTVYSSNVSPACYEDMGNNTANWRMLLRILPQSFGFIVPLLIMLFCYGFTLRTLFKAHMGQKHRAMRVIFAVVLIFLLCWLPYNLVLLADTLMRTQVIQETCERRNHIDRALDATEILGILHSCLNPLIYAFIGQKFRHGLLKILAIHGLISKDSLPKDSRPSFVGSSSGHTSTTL

T2: Cynomolgus CXCR2 (cynomolgus, UniProt Q28519 3-353 (rhesus entry))
T2 construct: On transfected HEK293T or RBL-2H3 cells; native on cynomolgus neutrophils in the WBSC assay; also called cCXCR2; cynoCXCR2
T2 chain: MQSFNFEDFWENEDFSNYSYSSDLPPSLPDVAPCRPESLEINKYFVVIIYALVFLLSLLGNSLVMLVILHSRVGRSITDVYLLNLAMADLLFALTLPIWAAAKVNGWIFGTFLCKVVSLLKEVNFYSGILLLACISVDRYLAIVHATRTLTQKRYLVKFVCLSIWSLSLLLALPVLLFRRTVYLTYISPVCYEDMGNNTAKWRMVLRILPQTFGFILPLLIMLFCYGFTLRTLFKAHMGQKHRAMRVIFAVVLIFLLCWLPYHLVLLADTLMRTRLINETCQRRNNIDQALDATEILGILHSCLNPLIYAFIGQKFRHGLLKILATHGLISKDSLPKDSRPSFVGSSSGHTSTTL

T3: Human 1to19 peptide (human)
T3 construct: First 19 N-terminal amino acids of human CXCR2, captured on neutravidin; also called human CXCR2 1 to19 peptide; 1-19 Nter peptide
T3 peptide: MEDFNMESDSFEDFWKGED-biotin

B1: 127D1 (VHH)
VHH: EVQLVESGGGLVQAGESLRLSCAASGSTFDFKVMGWYRQPPGKQREGVAAIRLSGNMHYAESVKGRFTISKANAKNTVYLQMNSLRPEDTAVYYCKVNIRGQDYWGQGTQVTVSS
notes: Tested as periplasmic extract (pAX50) and as purified His6-tagged protein (pAX100); also called 127D01; not shown: C-terminal c-myc tag and His6 tag coded by the vector
B2: CXCR20026 (bispecific antibody)
chain: EVQLVESGGGLVQPGGSLRLSCVASGRIFSSNAMGWFRQAPGKEREFVAAITWRSGGSAYYADSAKGRFTISRDNAKNTVYLQMNSLKPEDTAVYYCAAGGSSWLSFPPDYWGQGTQVTVSSGGGGSGGGGSGGGGSGGGGSGGGGSGGGGSGGGGSEVQLVESGGGLVQAGESLRLSCAASGSTFDFKVMGWYRQPPGKQREGVAAIRLSGNMHYAESVKGRFTISKANAKNTVYLQMNSLRPEDTAVYYCKVNIRGQDYWGQGTQVTVSS
notes: Biparatopic: two VHH joined by a GlySer linker; also called 163E3-35GS-127D1; 163E3-127D1; not shown: C-terminal c-myc tag and His6 tag coded by pAX100
B3: 97A9 (VHH)
VHH: EVQLVESGGGLVQPGGSLRLSCVASGSIVRINTMGWYRQTPGKQRELVADITSGGNINYIDAVKGRFTISRDNTKNTVYLQMNSLKPEDTAVYYCNAEIVVLVGVWTQRARTGNYWGQGTQVTVSS
notes: Tested as periplasmic extract (pAX50) and as purified His6-tagged protein (pAX100); also called 097A09; not shown: C-terminal c-myc tag and His6 tag coded by the vector

Legend:
Human CXCR2 [1] = biological target: T1, Human CXCR2; assay: FACS hGro-α competition
Cynomolgus CXCR2 [2] = biological target: T2, Cynomolgus CXCR2; assay: FACS hGro-α competition
Human CXCR2 [3] = biological target: T1, Human CXCR2; assay: cell-based or functional assay
Cynomolgus CXCR2 [4] = biological target: T2, Cynomolgus CXCR2; assay: cell-based or functional assay
Human CXCR2 [5] = biological target: T1, Human CXCR2; assay: FACS, periplasmic extract vs FMAT Blue Gro-α
Experimental: Periplasmic extracts (as described above) were analyzed on FACS for competition with Gro-α in binding to human CXCR2. 2×10⁵ cells were incubated with a ½ dilution of periplasmic extracts in FACS buffer (PBS+10% fetal bovine serum (Sigma, F7524)) for 30 minutes at 4° C. Then, an equal volume of 6 nM of FMAT Blue-labeled human Gro-α in FACS buffer was added and incubation was continued for another 30 minutes at 4° C. in the dark. Cells were then washed three times in FACS buffer and finally resuspended in FACS buffer. Dead cells were stained with propidium iodide (Sigma, P4170). Samples were then analyzed on a FACSarray (BD Biosciences).

Human CXCR2 [6] = biological target: T1, Human CXCR2; assay: FACS competition vs 3 nM FMAT-Blue Gro-α
Experimental: (§1) Purified monovalent anti-CXCR2Nanobodies were titrated against 3 nM FMAT-Blue-labeled Gro-α in the FACS ligand competition assay on human and cynomolgus CXCR2 (Table 10). On human CXCR2, blocking potencies range between double digit nM and sub-nM whereas on cynomolgus CXCR2, they range between single and double digit nM.

Cynomolgus CXCR2 [7] = biological target: T2, Cynomolgus CXCR2; assay: FACS competition vs 3 nM FMAT-Blue Gro-α
Experimental: as §1

Human CXCR2 [8] = biological target: T1, Human CXCR2; assay: cell-based or functional assay; remark: listed apart in the source
Cynomolgus CXCR2 [9] = biological target: T2, Cynomolgus CXCR2; assay: cell-based or functional assay
Human CXCR2 [10] = biological target: T1, Human CXCR2; assay: cell-based or functional assay; remark: listed apart in the source
Human 1to19 peptide = biological target: T3, Human 1to19 peptide; assay: ELISA, periplasmic extract on biotinylated peptide
Experimental: In another setup, periplasmic extracts were analyzed for binding to human 1 to 19 peptide by ELISA. MaxiSorb plates (Nunc, 430341) were coated for two hours with neutravidin followed by one hour blocking (PBS, 1% casein). Then 100 nM biotinylated human 1 to 19 peptide was added to these plates for one hour (PBS, 0.1% casein, 0.05% tween20) followed by one hour incubation with 10-fold dilutions of periplasmic extracts. Unbound periplasmic extracts were washed away (PBS supplemented with 0.05% tween20) and bound Nanobodies were detected using mouse anti-myc (Roche, 11667149001) followed by rabbit anti-mouse-HRP conjugate (Dakocytomation, P0260). Table 8 summarizes the ratios of the binding signals of anti-CXCR2Nanobodies over an irrelevant control Nanobody.

Human CXCR2 [11] = biological target: T1, Human CXCR2; assay: cell-based or functional assay; remark: listed apart in the source
Cynomolgus CXCR2 [12] = biological target: T2, Cynomolgus CXCR2; assay: cell-based or functional assay
Human CXCR2 [13] = biological target: T1, Human CXCR2; assay: cell-based or functional assay; remark: listed apart in the source
Cynomolgus CXCR2 [14] = biological target: T2, Cynomolgus CXCR2; assay: cell-based or functional assay
Human CXCR2 [15] = biological target: T1, Human CXCR2; assay: FACS competition vs 3 nM FMAT-Blue Gro-α; remark: listed apart in the source
Experimental: as §1, with “Multivalent” for “Purified monovalent”, “14).” for “10).”

Cynomolgus CXCR2 [16] = biological target: T2, Cynomolgus CXCR2; assay: FACS competition vs 3 nM FMAT-Blue Gro-α
Experimental: as §1, with “Multivalent” for “Purified monovalent”, “14).” for “10).”

Human CXCR2 [17] = biological target: T1, Human CXCR2; assay: cell-based or functional assay; remark: listed apart in the source
Human CXCR2 [18] = biological target: T1, Human CXCR2; assay: cell-based or functional assay; remark: listed apart in the source
Cynomolgus CXCR2 [19] = biological target: T2, Cynomolgus CXCR2; assay: cell-based or functional assay
Human CXCR2 [20] = biological target: T1, Human CXCR2; assay: FACS hGro-α competition; remark: listed apart in the source
Cynomolgus CXCR2 [21] = biological target: T2, Cynomolgus CXCR2; assay: FACS hGro-α competition
Human CXCR2 [22] = biological target: T1, Human CXCR2; assay: cell-based or functional assay; remark: listed apart in the source
Cynomolgus CXCR2 [23] = biological target: T2, Cynomolgus CXCR2; assay: cell-based or functional assay

Binder | Human Chemotaxis IC50 (GROα) (Human CXCR2 [3]) [nM] | Human WBSC IC50 (rhGROα) (Human CXCR2 [3]) [nM] | Cynomologus WBSC IC50 (rhGROα) (Cynomolgus CXCR2 [4]) [nM] | FACS Gro-α competition (% inhibition) (Human CXCR2 [5]) [%] | % inhibition of max (Human CXCR2 [6]) [%] | IC50 (Human CXCR2 [6]) [nM] | % inhibition of max (Cynomolgus CXCR2 [7]) [%] | IC50 (Cynomolgus CXCR2 [7]) [nM] | IC50 (M) at 5 nM GROα (inhibition of GRO-α, FIG. 2) (Human CXCR2 [10]) [M] | IC50 (M) at 15 nM GROα (inhibition of GRO-α, FIG. 2) (Human CXCR2 [10]) [M] | IC50 (M) at 150 nM GROα (inhibition of GRO-α, FIG. 2) (Human CXCR2 [10]) [M] | ratio of binding signal relative to blank control (Human 1to19 peptide) [ratio] | FLIPR % inhibition max (Human CXCR2 [11]) [%] | FLIPR IC50 (GRO-α induced calcium release) (Human CXCR2 [11]) [nM] | [35S]GTPγS % inhibition max (GRO-α) (Human CXCR2 [11]) [%] | [35S]GTPγS IC50 (GRO-α) (Human CXCR2 [11]) [nM] | FLIPR % inhibition max (Cynomolgus CXCR2 [12]) [%] | FLIPR IC50 (GRO-α induced calcium release) (Cynomolgus CXCR2 [12]) [nM] | further results
B1 | 14 | 4.9 | > 100 | 46.7 | 61.1 | 0.309 | 82.6 | 4.41 | 1.64e-09 | 2.04e-09 | 4.6e-09 | 39.5 | 100 | 21.9 | 66 | 12.5 | 100 | 753 | IC50 (Human CXCR2 [1]): 0.55 nM; IC50 (Cynomolgus CXCR2 [2]): 6.1 nM; FLIPR hGro-α IC50 (Human CXCR2 [8]): 15 nM; FLIPR hGro-α IC50 (Cynomolgus CXCR2 [9]): 1100 nM; IC50 (M) at 45 nM GROα (inhibition of GRO-α, FIG. 2) (Human CXCR2 [10]): 3.26e-09 M
B2 |  |  |  |  |  |  |  |  | 6.53e-10 | 1.98e-09 | 6.71e-08 |  |  |  |  |  |  |  | FLIPR % inhibition of max (Human CXCR2 [13]): 100%; FLIPR IC50 (GRO-α induced calcium release) (Human CXCR2 [13]): 12.3 nM; FLIPR % inhibition of max (Cynomolgus CXCR2 [14]): 100%; FLIPR IC50 (GRO-α induced calcium release) (Cynomolgus CXCR2 [14]): 9.1 nM; % inhibition of max (Human CXCR2 [15]): 99.5%; IC50 (Human CXCR2 [15]): 0.9 nM; % inhibition of max (Cynomolgus CXCR2 [16]): 99%; IC50 (Cynomolgus CXCR2 [16]): 1.82 nM; [35S]GTPγS % inhibition of max (GRO-α) (Human CXCR2 [17]): 100%; [35S]GTPγS IC50 (GRO-α) (Human CXCR2 [17]): 0.809 nM; Human Chemotaxis IC50 (rhGROα) (Human CXCR2 [18]): 0.14 nM; Human WBSC IC50 (rhGROα) (Human CXCR2 [18]): 0.165 nM; Cynomologus WBSC IC50 (rhGROα) (Cynomolgus CXCR2 [19]): 0.26 nM
B3 | 48.5 | 11.6 | > 100 | 85.9 | 93.9 | 17.2 | 53 | 64.1 |  |  |  | 0.8 | 100 | 39.9 | 100 | 50.3 | 100 | 640 | IC50 (Human CXCR2 [20]): 12 nM; IC50 (Cynomolgus CXCR2 [21]): 63 nM; FLIPR hGro-α IC50 (Human CXCR2 [22]): 94 nM; FLIPR hGro-α IC50 (Cynomolgus CXCR2 [23]): 800 nM
